Our source for the koff and kon values is PMC8383480.

The test concerns the target peptide probe (designed thiol-sensitive probe mimicking the substrate of the main protease). Briefly: SPR. A general note: Surface plasmon resonance follows binding to a sensor surface in real time, without labels.

A word on the koff: it is the first-order rate constant of dissociation. What is called kon is the rate constant with which the complex forms. As for “main protease of SARS-Cov-2 (from UniProt P0DTD1) (enzyme)”, the koff is 0.182 s⁻¹ and the kon was 1.03e+08 M⁻¹ s⁻¹.
